Measurements from publication PMC8432736.

Target: Recombinant active ACE2-Fc (ACRO biosystems, AC2-H5257) (human) (UniProt Q9BYF1)
Assay: SPR

UniProt Q9BYF1, sequence (Q9BYF1 18-740): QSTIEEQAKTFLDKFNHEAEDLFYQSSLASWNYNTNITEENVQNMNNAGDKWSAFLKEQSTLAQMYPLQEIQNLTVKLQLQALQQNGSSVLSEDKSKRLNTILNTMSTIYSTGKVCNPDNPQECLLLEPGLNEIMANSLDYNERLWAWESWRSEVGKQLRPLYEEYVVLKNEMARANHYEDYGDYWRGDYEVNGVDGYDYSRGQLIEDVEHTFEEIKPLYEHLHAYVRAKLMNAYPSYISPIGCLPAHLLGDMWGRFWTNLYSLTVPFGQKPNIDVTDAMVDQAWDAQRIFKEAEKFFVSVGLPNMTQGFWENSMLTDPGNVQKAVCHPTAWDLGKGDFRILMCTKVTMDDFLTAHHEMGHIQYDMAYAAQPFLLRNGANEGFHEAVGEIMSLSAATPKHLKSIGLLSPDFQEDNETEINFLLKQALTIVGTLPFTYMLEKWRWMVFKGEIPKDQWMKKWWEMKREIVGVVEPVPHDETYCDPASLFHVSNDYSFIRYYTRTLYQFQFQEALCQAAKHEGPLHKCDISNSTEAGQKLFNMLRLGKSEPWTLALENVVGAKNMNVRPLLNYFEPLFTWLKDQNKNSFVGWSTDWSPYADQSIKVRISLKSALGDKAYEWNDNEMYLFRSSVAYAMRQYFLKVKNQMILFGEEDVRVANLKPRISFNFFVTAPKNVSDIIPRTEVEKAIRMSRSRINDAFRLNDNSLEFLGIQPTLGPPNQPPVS

Substance: Angiotensin II (peptide)
- Kd: 117 nM
